{
  "source": "patent US12606635B2",
  "about": "“Glypican-2-binding moieties, chimeric antigen receptors and uses thereof” (Nanjing Legend Biotech Co., Ltd., priority 2020, dated 2026)",
  "molecules": {"B1": {"name": "CAS71529VH5-BBz: humanized VHH anti-GPC2 CAR (4-1BB, CD3ζ), SEQ ID NO: 222; tested as CAR T cells (protein)", "chain": "MALPVTALLLPLALLLHAARPEVQLVESGGGLVQPGGSLRLSCAVSEYRYSSRYCMGWFRQAPGKGLEGVSAIDSNGSADYVDSVKGRFTISKDNSKNTLYLQMNSLRAEDTAVYYCAADHLAYDCYSGATSVFRYWGQGTLVTVSSTTTPAPRPPTPAPTIASQPLSLRPEACRPAAGGAVHTRGLDFACDIYIWAPLAGTCGVLLLSLVITLYCKRGRKKLLYIFKQPFMRPVQTTQEEDGCSCRFPEEEEGGCELRVKFSRSADAPAYKQGQNQLYNELNLGRREEYDVLDKRRGRDPEMGGKPRRKNPQEGLYNELQKDKMAEAYSEIGMKGERRRGKGHDGLYQGLSTATKDTYDALHMQALPPR", "modifications": "expressed in CAR T cells; CAS71529VH5-BBz"}},
  "key": {"[1]": {"test_system": "human neuroblastoma cell line SH-SY5Y", "assay": "In vitro cytotoxicity assay (LDH), SH-SY5Y", "assay_type": "cell-based", "details": "1:1 effector to target ratio, FIG. 8B", "protocol": "(§1) The pre-activated T cells were transduced with lentivirus stock in the presence of […] polybrene and 300 IU/mL IL-2. T cells and lentivirus were centrifuged at 1000 g, 32° C. for 1 h and placed in humidified cell culture incubator for transgene expression under suitable conditions. On day 5 or day 7 or day 10 post-transduction, transduced T cells were harvested and co-incubated with tumor cells at an effector (CAR T) to target cell ratio of 10:1 or 5:1 or 2:1 or 1:1 or 0.2:1 for 20 hours. Target cells were human neuroblastoma cell line SH-SY5Y (ATCC, #CRL-2266), human neuroblastoma cell line IMR-32 cells (ATCC, #CCL-127), or human epidermoid carcinoma cell line A-431 (ATCC, #CRL-1555). To assay the cytotoxicity of CAR T cells on tumor cells, the Cytotoxicity Detection Kit (LDH) (Roche, #11644793001) assay reagents were prepared according to manufacturer's protocol. Reaction mix was added to the cell-free supernatant of each sample to detect the LDH released from cells. Optical densities at OD492 nm and OD650 nm were measured by PHERStar Microplate Reader. Baseline LDH released from the target cell in the absence of effector cells and effector cell in the absence of target cells were subtracted from the total LDH amount. The target maximum release was obtained by adding Triton-X100 at a final concentration of 1% to target cells in the absence of effector cells at the time when the cytotoxicity assays initiated. Supernatant from target cells in the absence of effector cells was used for target minimum release. The specific cytotoxicity was calculated by the formula: % Target cell lysis=100*[(OD CAR T cell+Target cell)−(OD CAR T cell)−(OD Target cell)+(OD Buffer background)]/(OD Target Maximum release−OD Target Minimum release).\n(§2) On day 5 or day 8 or day 10 post-transduction, transduced T cells were harvested and co-incubated with tumor cells at an effector (CAR T) to target cell ratio of 10:1 or 1:1 or 0.2:1 for 20 hours. To assay the cytotoxicity of CAR T cells on tumor cells, the Cytotoxicity Detection Kit (LDH) (Roche, #11644793001) was added to the culture supernatant and the specific cytotoxicity for each CAR T cell construct was measured as described in Example 6."}, "[2]": {"test_system": "human neuroblastoma cell line IMR-32", "assay": "In vitro cytotoxicity assay (LDH), IMR-32", "assay_type": "cell-based", "details": "1:1 effector to target ratio, FIG. 8B", "protocol": "as §1, with “Supernatant from target cells in the absence of effector cells was used for target minimum release.” left out\nas §2"}, "IMR-32": {"test_system": "IMR-32", "assay": "IFNγ release in co-culture with IMR-32", "assay_type": "cell-based, human", "details": "Example 7, co-culture with IMR-32, FIG. 8D-8F", "text": "(§3) In addition to the cytotoxicity data above, supernatants from the in vitro co-culture assays were also collected to assess CAR T cells-induced cytokine release, e.g., release of interferon gamma (i.e., IFNγ), as another indicator of cytotoxicity, was quantified using a HTRF human IFNγ AlphaLISA kit (Perkin Elmer, #62HIFNGPEH) per manufacturer's instruction. […] No significant cytokine release were detected against GPC2-negative cell line A-431.\n(§4) Supernatants from the in vitro co-culture assays were collected to assess CAR T cells-induced cytokine release, e.g., interferon gamma (i.e., IFNγ) release as described in Example 6. […] IFNγ was not induced in GPC2-negative A-431 cells. […] Cytokine release data was consistent with the in vitro cytotoxicity data."}, "SH-SY5Y": {"test_system": "SH-SY5Y", "assay": "IFNγ release in co-culture with SH-SY5Y", "assay_type": "cell-based, human", "details": "Example 7, co-culture with SH-SY5Y, FIG. 8D-8F", "text": "as §3, §4"}},
  "data": [
    {"molecule": "B1", "values": [
      {"measurement": "cytotoxicity against SH-SY5Y", "setting": "[1]", "value": "less than 30%"},
      {"measurement": "cytotoxicity against IMR-32", "setting": "[2]", "value": "less than 30%"},
      {"measurement": "IFNγ release", "setting": "IMR-32", "value": "high levels of IFNγ"},
      {"measurement": "IFNγ release", "setting": "SH-SY5Y", "value": "high levels of IFNγ"}
    ]}
  ]
}
